Test results taken from patent publication US20100093623A1, “COMPOSITIONS AND METHODS FOR […]-LIKE RECEPTOR ACTIVITY AND USES THEREOF” (Burnham Institute for Medical Research, priority 2008, published 2010).
“And” between values parts separate entries of the source, which are not always exact repeats. Equal values may be shown once. “Also recorded” adds a separate entry of the source. No end group written: not given here.

Tests used:
[1] = biological target: T1, NLRP1 (Homo sapiens, UniProt Q9C000); assay: in vitro reconstituted NLRP1 inflammasome: Caspase-1 activity by hydrolysis of Ac-WEHD-AMC; format: biochemical; conditions: for concentration-dependence of inhibition of NLRP1-induced Caspase-1 activity: various concentrations of protein or peptide, NLRP1 8.5 nM; for IC50: synthetic Bcl-2 peptides, various amounts, sigmoidal fit, read-out: IC50 (concentration to inhibit NLRP1-induced Caspase-1 activity by 50%); for Km: GST-Bcl-2 or GST-Bcl-XL 2 nM, control without inhibitor 2.62±0.35 μM, read-out: Km of Caspase-1 for its substrate Ac-WEHD-AMC in presence of inhibitor; for reduction of affinity (Km) of Caspase-1 for Ac-WEHD-AMC compared to control: in presence of Bcl-2 or Bcl-XL; for Ki: recombinant GST-fusion protein, calculated from Km with/without 2 nM inhibitor, competitive inhibition equation, read-out: inhibitory constant (Ki) for suppression of NLRP1 (NLRP1-induced Caspase-1 activation); for mechanism of NLRP1 inhibition (Lineweaver-Burke analysis): x-axis intercept changed, y-axis intercept unchanged
T1 sequence (Q9C000 1-1473): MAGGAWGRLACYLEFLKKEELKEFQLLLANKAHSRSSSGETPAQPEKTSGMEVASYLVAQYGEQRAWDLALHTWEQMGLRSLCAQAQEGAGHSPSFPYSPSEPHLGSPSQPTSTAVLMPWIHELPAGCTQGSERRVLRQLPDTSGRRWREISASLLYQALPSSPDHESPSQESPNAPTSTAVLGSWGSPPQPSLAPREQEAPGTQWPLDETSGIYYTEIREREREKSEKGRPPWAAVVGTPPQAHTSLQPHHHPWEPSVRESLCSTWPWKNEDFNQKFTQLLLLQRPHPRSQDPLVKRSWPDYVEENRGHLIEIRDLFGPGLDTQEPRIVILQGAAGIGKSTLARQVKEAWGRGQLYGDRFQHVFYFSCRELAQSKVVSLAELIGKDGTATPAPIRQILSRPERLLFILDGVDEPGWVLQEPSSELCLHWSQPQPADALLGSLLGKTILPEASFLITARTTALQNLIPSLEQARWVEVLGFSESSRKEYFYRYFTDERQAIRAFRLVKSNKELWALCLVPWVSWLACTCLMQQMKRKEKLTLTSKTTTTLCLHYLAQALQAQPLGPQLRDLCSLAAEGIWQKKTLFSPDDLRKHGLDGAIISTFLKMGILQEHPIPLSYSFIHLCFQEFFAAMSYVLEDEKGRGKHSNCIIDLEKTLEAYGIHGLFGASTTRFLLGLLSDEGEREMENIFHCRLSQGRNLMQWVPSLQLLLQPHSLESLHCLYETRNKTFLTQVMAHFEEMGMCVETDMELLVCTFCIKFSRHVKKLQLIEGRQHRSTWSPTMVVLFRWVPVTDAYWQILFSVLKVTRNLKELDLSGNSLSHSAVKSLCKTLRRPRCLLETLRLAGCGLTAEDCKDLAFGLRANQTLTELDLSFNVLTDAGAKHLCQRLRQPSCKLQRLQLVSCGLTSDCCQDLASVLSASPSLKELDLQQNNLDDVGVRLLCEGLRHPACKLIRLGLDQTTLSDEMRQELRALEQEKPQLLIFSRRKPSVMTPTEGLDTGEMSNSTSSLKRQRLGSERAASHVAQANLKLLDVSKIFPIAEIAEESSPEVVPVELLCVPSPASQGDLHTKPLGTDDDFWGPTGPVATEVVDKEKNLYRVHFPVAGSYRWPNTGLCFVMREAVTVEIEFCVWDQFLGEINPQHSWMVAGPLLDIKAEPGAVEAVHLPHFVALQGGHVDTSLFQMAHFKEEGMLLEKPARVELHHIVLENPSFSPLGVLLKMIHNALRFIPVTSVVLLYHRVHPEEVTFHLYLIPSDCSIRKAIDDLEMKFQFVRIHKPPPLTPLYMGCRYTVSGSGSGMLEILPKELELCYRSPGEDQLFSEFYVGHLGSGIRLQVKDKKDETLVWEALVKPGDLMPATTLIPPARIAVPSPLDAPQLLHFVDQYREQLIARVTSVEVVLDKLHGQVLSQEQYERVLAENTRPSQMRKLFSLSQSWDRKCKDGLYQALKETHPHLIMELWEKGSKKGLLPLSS

[2] = biological target: T2, Caspase-1 (Homo sapiens, UniProt P29466); assay: activity of purified active p10/p20 Caspase-1 (direct effect); format: biochemical; conditions: active p10/p20 Caspase-1 5 nM; test protein/peptide at excess; Ac-WEHD-CHO 10 nM
T2 construct: fully active, proteolytically processed Caspase-1 comprised of p20 and p10 catalytic subunits purified from bacteria; made in house; host or cells: bacteria
T2 sequence (P29466 120-297 limits assumed): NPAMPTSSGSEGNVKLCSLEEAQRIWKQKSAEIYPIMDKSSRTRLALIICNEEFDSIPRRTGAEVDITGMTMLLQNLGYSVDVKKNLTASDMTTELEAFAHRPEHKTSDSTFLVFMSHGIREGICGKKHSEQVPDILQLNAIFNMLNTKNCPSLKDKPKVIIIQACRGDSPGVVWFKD
T2 sequence (P29466 317-404 limits assumed): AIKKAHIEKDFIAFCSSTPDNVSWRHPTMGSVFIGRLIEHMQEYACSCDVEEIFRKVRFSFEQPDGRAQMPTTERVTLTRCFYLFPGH
Description: (§1) FIGS. 16A-16E show Bcl-2 Loop peptide inhibits NLRP1. […] Asterisk indicates p<0.05. (B) Purified active p10/p20 Caspase-1 (5 nM) was incubated with or without Bcl-2 Loop peptide 35-83 or Ac-WEHD-CHO (10 nM). […] Asterisks indicate p<0.05.
Caspase activity measurements. […] Proteins were mixed in Caspase-1 buffer (100 mM HEPES, [pH 7.5], 10% Sucrose, 0.1% CHAPS, 1 mM Dithiothreitol) in a final volume of 10 μl in 96-well plates. Various activators were added (ATP, Mg^2+, MDP-LD), adjusting final volume with water. Samples were then incubated for 30 min at 37° C. and Caspase-1 activity was measured using 20 μM fluorometric substrate Ac-WEHD-AMC (Calbiochem). Release of AMC product was monitored continuously by spectrofluorometry in kinetic mode over 1 h at 25-27° C. Rates of catalysis were calculated using the initial slope and Caspase activity was expressed as the change in fluorescence over time derived from the linear phase of reactions. Data were analyzed using the PRISM Statistics software, employing an unpaired t test.
To exclude a direct effect of Bcl-2 and Bcl-XL on Caspase-1, as opposed to NLRP1, the effects of these anti-apoptotic proteins were tested on fully active, proteolytically processed Caspase-1 comprised of p20 and p10 catalytic subunits purified from bacteria (FIG. 11).

[3] = system: NLRP1ΔLRR; assay: Caspase-1 activation by NLRP1ΔLRR mutant; format: biochemical; conditions: peptide 50 nM; Ac-WEHD-CHO 10 nM; NLRP1ΔLRR 8.5 nM
Description: as §1
To characterize the sequence of the Bcl-2 loop responsible for inhibiting NLRP1, a series of overlapping 20′mer peptides corresponding to the 35-83 region were synthesized and tested their effects on NLRP1-mediated Caspase-1 activation. […] The effects of the full-loop peptide (35-83) and the active segment (71-90) were specific, as determined by experiments using a NLRP1 mutant lacking the LRRs. […] Finally, the concentration-dependence of NLRP1 inhibition by the 35-83 and 71-90 loop peptides were compared.

[4] = biological target: T1, NLRP1; assay: NLRP1 oligomerization induced by MDP and ATP, 2D native/SDS gel electrophoresis; format: biochemical; conditions: protein at excess (1/10 molar ratio)
Description: Electrophoresis. Samples were incubated with protein solubilizing solution (40 mM 6-aminocaproic acid, 20 mM Bis-tris) for 30 min at 4° C., mixed with loading buffer (1M 6-aminocaproic acid, 5% Serva blue G), and applied to acrylamide-bis gradient (4-20%) gels (Schagger et al., (1994) Anal Biochem 217, 220-30). Bands of gels corresponding to the entire lane were excised from top to the bottom, incubated 45 min at 25-27° C. in denaturating buffer (1% β-mercaptoethanol, 10% SDS), then washed twice in equilibrating buffer (50 mM Tris. 1% SDS). Bands from gels were set horizontally on a SDS-acrylamide gel, and proteins were separated by electrophoresis (second dimension), then stained with Sypro Ruby. Molecular weight markers included Thyroglobuline, Apoferritin, β-Amylase and BSA (Sigma).
Oligomerization of NLRP1 induced by MDP and ATP can be monitored using 2D gel-electrophoresis analysis, in which the first dimension is non-denaturing and thus preserves macromolecular complexes during electrophoresis and the second dimension contains SDS for subsequent identification of proteins based on their known molecular mass (Faustin, 2007). For these experiments, NLRP1 monomers were incubated with various proteins (GST, GST-Bcl-XL, His6-Bcl-XLΔLoop) at excess, then MDP and ATP were added to induce oligomerization (FIG. 15). […]

[5] = biological target: T1, NLRP1; assay: FITC-ATP binding to NLRP1 by fluorescence polarization assay (FPA); conditions: protein 1 μM at excess; NLRP1 0.125 μM; FITC-ATP 10 nM; MDP-LD 1 μM
[6] = biological target: T1, NLRP1; assay: NLRP1-mediated proteolytic processing of pro-Caspase-1 (anti-p10 immunoblot); format: biochemical; conditions: molar ratio NLRP1/protein 1/5

Row | Substance | concentration-dependence of inhibition of NLRP1-induced Caspase-1 activity [1] | direct effect on activity of fully active processed Caspase-1 [2] | Caspase-1 activation by NLRP1ΔLRR [3] | IC50 [1] | oligomerization of NLRP1 induced by MDP/ATP [4] | reduction of FITC-ATP binding to NLRP1 [5] | MDP/ATP-induced proteolytic processing of pro-Caspase-1 to cleaved p10 subunit [6] | Km [1] [µM] | reduction of affinity (Km) of Caspase-1 for Ac-WEHD-AMC compared to control [1] [fold] | Ki [1] | mechanism of NLRP1 inhibition (Lineweaver-Burke analysis) [1]
1 | YDNREIVMKYIHYKLSQRGYEW (Synthetic Bcl-2 Loop peptides) [Bcl-2 BH4 domain 9-30, control peptide, reference compound] | negligible activity |  |  |  |  |  |  |  |  |  | 
2 | acetyl-Tryptophanyl-Glutamyl-Histidinyl-Aspartyl-aldehyde (Ac-WEHD-aldehyde; SMILES CC(=O)N[C@@H](Cc1c[nH]c2ccccc12)C(=O)N[C@@H](CCC(=O)O)C(=O)N[C@@H](Cc1c[nH]cn1)C(=O)N[C@H](C=O)CC(=O)O) [Ac-WEHD-CHO, reference compound] |  | completely inhibited; also recorded: potently suppressed the activity of this protease | completely neutralized Caspase-1 activity |  |  |  |  |  |  |  | 
3 | PLQTPAAPGAAAGPALSPVP [Bcl-2 71-90] | reducing Caspaes-1 activity to background levels |  | neither the 35-83 nor the 71-90 loop peptides suppressed Caspase-1 activation by NLRP1ΔLRR | 9.92 nM and ~10 nM |  |  |  |  |  |  | 
4 | Bcl-XL: anti-apoptotic protein; recombinant GST-fusion lacking C-terminal transmembrane domain | essentially complete inhibition | neither Bcl-2 nor Bcl-XL suppressed Caspase-1 activity |  |  | suppressed oligomerization of NLRP1 | ~60% | inhibited | 6.05 ± 0.24 | 2 | ~10 nM and 10 nM | competitive inhibitors of NLRP1
5 | GST: control protein [reference compound] |  |  |  |  | not affected | negligible effects |  |  |  |  | 
6 | VGAAPPGAAPAPGIFSSQPGHTPHPAASRDPVARTSPLQTPAAPGAAAG [Bcl-2 Loop 35-83] | reducing Caspaes-1 activity to background levels | did not directly inhibit Caspase-1 | neither the 35-83 nor the 71-90 loop peptides suppressed Caspase-1 activation by NLRP1ΔLRR | 11.4 nM and ~12 nM |  |  |  |  |  |  | 
7 | Bcl-2: anti-apoptotic protein; recombinant GST-fusion lacking C-terminal transmembrane domain (SEQ ID NO:3/4) | essentially complete inhibition | neither Bcl-2 nor Bcl-XL suppressed Caspase-1 activity |  |  |  | ~60% | inhibited | 5.04 ± 0.5 | 2 | ~10 nM and 8.23 nM and 10 nM | competitive inhibitors of NLRP1
